Results on two molecules are retold here after article PMC6737250, “A new perspective on membrane-embedded Bax oligomers using DEER and bioresistant orthogonal spin labels” (Scientific Reports, 2019).

Test [1] addresses Bax_(C87(C62S, C126S)) labeled with maleimide gem-diethyl nitroxide (MAG) (human) (UniProt Q07812). In words: DEER (double electron-electron resonance, EPR); inactive Bax in buffer (aqueous solution) with 50% v/v glycerol-d8, flash frozen; Q-band 4-pulse DEER, NO-NO at 50 K, Gd-Gd at 10 K; one labeled variant per sample.
Test [2] addresses Bax_(C87(C62S, C126S)) labeled with maleimide Gd-DOTA (human) (UniProt Q07812). The description is as above.
In test [3] the target is T1, Bax wild type labeled with MTSL at cysteines 62 and 126 (human, UniProt Q07812 1-192, MTSL nitroxide spin label (R1) on the native cysteines 62 and 126).
T1 construct: Bax, human, full length; two native cysteines at positions 62 and 126; also called Bax_(WTR1); source: E. coli (BL21/RIPL/pTYB1-Bax), purified; labeled with MTSL
In words: DEER (double electron-electron resonance, EPR); two Bax variants mixed before oligomerization (3-fold excess of unlabeled BaxWT or of Bax_(C87Gd) over nitroxide-labeled BaxWT), activated with cBid and MOM-like liposomes, pellet fraction; NO-NO (50 K), NO-Gd (10 K) and Gd-Gd (10 K) DEER channels on the same sample. To be noted: both partners purified.

The target of test [4] is T2, Bax wild type labeled with iodacetamide gem-diethyl nitroxide (IAG) (human, UniProt Q07812 1-192, IAG (iodacetamide gem-diethyl nitroxide) spin label on the native cysteines 62 and 126).
T2 construct: Bax, human, full length; two native cysteines at positions 62 and 126; also called Bax_(WTIAG); source: E. coli (BL21/RIPL/pTYB1-Bax), purified; labeled with IAG
The test is described as above. To be noted: both partners purified.

As to “Bax_(C87(C62S, C126S)) labeled with maleimide gem-diethyl nitroxide (MAG) (from UniProt Q07812 1-192) (natural protein)”, in test [1], the fraction of dimeric protein in solution was < 10%.

B1: Bax_(C87(C62S, C126S)) labeled with maleimide Gd-DOTA (natural protein, human, UniProt Q07812 1-192, looked up)
chain: MDGSGEQPRGGGPTSSEQIMKTGALLLQGFIQDRAGRMGGEAPELALDPVPQDASTKKLSESLKRIGDELDSNMELQRMIAAVDTDCPREVFFRVAADMFSDGNFNWGRVVALFYFASKLVLKALSTKVPELIRTIMGWTLDFLRERLLGWIQDQGGWDGLLSYFGTPTWQTVTIFVAGVLTASLTIWKKMG
modifications: maleimide Gd-DOTA spin label on cysteine 87
notes: Bax, human, full length, single surface-exposed cysteine at position 87; also called Bax_(C87Gd); source: E. coli, purified in the same way as the wild type protein; labeled with maleimide Gd-DOTA
For B1, the fraction of dimeric protein in solution in test [2] was < 10%. Further, the binding result in test [3] and in test [4] was “binds” each time.
